Reference: the supplement of paper PMC10567573
± gives the standard deviation.

Experiment: protein stability index of a GFP-peptide fusion (GPS, HEK-293T) (PSI 1-6); higher = more stable
[1] = treatment: DMSO, c terminus: a fixed tail appended
[2] = treatment: MLN4924 1 uM, 8 h, c terminus: a fixed tail appended
[3] = treatment: DMSO, c terminus: native
[4] = treatment: MLN4924 1 uM, 8 h, c terminus: native
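Further: 24-mer peptide tiles fused after GFP, lentivirally expressed, FACS-sorted into six equal bins by GFP/DsRed ratio, decoded by Illumina sequencing, PSI is the read-weighted mean bin number.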

| Sequence | protein stability index [1] | protein stability index [2] | protein stability index [3] | protein stability index [4] |
| --- | --- | --- | --- | --- |
| LQPLSKPLSSQPQAIVTEDKTDIS [MLH1] | 5.31 ± 0.19 | 5.19 ± 0.14 |  |  |
| QYQQVPVEIVKSDFHKPFLGGFRH [IQUB] | 2.7 ± 0.36 | 2.99 ± 0.49 |  |  |
| HIENGPFSLEQQLDDEDDDEEDCP [SRPK2] | 5.44 ± 0.4 | 5.46 ± 0.2 |  |  |
| GTSTWQFNFKFNLTEDMYAQDSIE [CNOT7] | 2.4 ± 0.2 | 2.59 ± 0.28 |  |  |
| QCIECGKSFNRHCNLIRHQKIHTV [ZSCAN9] | 3.37 ± 0.3 | 3.36 ± 0.38 |  |  |
| VAQLFNCMVGLLLIALLTWGYIRY [ATL3] | 3.11 ± 0.58 | 2.77 ± 0.42 |  |  |
| LESLQDGAAESPYAYSNGIDYKTT [RAB40C] | 4.29 ± 0.34 | 4.5 ± 0.16 |  |  |
| KEETNHSEMAEDLCKIGSERSLVL [IKZF1] | 4.69 ± 0.31 | 4.86 ± 0.28 |  |  |
| LCGAGSEPSIAPTSCAGNLPSRPP [RSPH3] | 4.36 ± 0.36 | 4.28 ± 0.21 |  |  |
| YVGEPLVCEVQVHGGSLLGKKYNW [GFOD1] | 2.61 ± 0.62 | 2.18 ± 0.42 |  |  |
| REMSKTFIIGELHPDDRPKLNKPP [CYB5A] | 3.95 ± 0.23 | 4.05 ± 0.28 |  |  |
| TFFEVSPLCNFNITESFTELARIV [RAB40B] | 2.24 ± 0.51 | 2.14 ± 0.16 |  |  |
| EEDKRRKGEEVTPISAIRHEGKTD [EPB41L3] | 5.59 ± 0.23 | 5.66 ± 0.13 |  |  |
| LVDEEEKVLIQKNLGPKSKVLILR [ADD1] | 3.16 ± 0.5 | 2.84 ± 0.25 |  |  |
| LGGEDGEKELISMECYDIYSKTWT [GAN] | 3.31 ± 0.45 | 3.19 ± 0.24 |  |  |
| FESGSVSFLNVTKSSLIWSYPAGS [TRIM43] | 2.13 ± 0.41 | 2.11 ± 0.13 |  |  |
| NSLITAPGEFSDASMSPDATKPSH [SMAD6] | 5.07 ± 0.21 | 5.23 ± 0.18 |  |  |
| PVRRIDGLTDVSQIITVTVQTGLD [IQUB] | 2.47 ± 0.45 | 2.45 ± 0.52 |  |  |
| DALLGIDDLETMPDDLLTTLDDTC [ATF4] | 5.17 ± 0.16 | 5.05 ± 0.34 |  |  |
| LMILRRVVNESTVCLMGHERRQTL [TENT5C] | 2.33 ± 0.18 | 2.34 ± 0.32 |  |  |
| AIHGYTVWAHNLIAIARLRGSDLK [FBXO33] | 3.13 ± 0.8 | 2.46 ± 0.42 |  |  |
| TFTASFSGKVFPFFAVWKKGSCLT [TRIM15] | 2.46 ± 0.47 | 2.34 ± 0.42 |  |  |

| Sequence | protein stability index [1] | protein stability index [2] | protein stability index [3] | protein stability index [4] |
| --- | --- | --- | --- | --- |
| MARPLVPSSQKALLLELKGLQEEP [CDC34] | 4.06 ± 0.13 | 3.98 ± 0.33 |  |  |
| SMLSKNPEDRPSLDDIIRHDFFLQ [PLK2] | 3 ± 0.21 | 3.19 ± 0.32 |  |  |
| KYKVHGKEILRTLQDVFCWLPLAT [PPEF2] | 3.08 ± 0.62 | 3.3 ± 1.7 |  |  |
| VQSEIFLHESYCMDTSHQPLLPAP [LYSMD4] | 2.93 ± 0.23 | 2.76 ± 0.28 |  |  |
| NTEDWRPRPGTGQSRSFRILAHLT [PDLIM7] | 2.81 ± 0.33 | 2.9 ± 0.22 |  |  |
| EDVRIFFYQSPYDSEQVPQALRRL [NCF4] | 2.79 ± 0.31 | 2.98 ± 0.4 |  |  |
| VVEVENFLFVLGGEDQWNPNGKHS [KLHL14] | 2.39 ± 0.31 | 2.37 ± 0.19 |  |  |
| EGAQRDRFPGRKQPGVHEEPVLKK [C22orf31] | 5.15 ± 0.3 | 5.17 ± 0.31 |  |  |
| WQDSDTVKLLVDLELSYGFENGQK [TOR1AIP2] | 2.7 ± 0.37 | 2.65 ± 0.49 |  |  |
| ESSMEDCLAHLGEKVSQELKEPLH [BCL2L13] | 4.97 ± 0.2 | 5.09 ± 0.32 |  |  |
| FVGYNPYSHLAYNNYRLGGNPSTN [SMARCE1] | 2.87 ± 0.21 | 2.54 ± 0.2 |  |  |
| FMTTNVPNVYPAAPQGGMAALNMS [ADD1] | 2.73 ± 0.41 | 2.87 ± 0.36 |  |  |
| HRGCGDGCCCPSCYRRYRFTGFY [KRTAP19-2] |  |  | 2.83 ± 0.59 | 3.31 ± 0.47 |
| FFIGFTALVIMWQKHYVYGPLPQS [COX4I1] | 3.22 ± 0.34 | 3.36 ± 0.57 |  |  |
| NKGTRFSEAWEYFHLAPARAGHHP [ZBED2] | 2.64 ± 0.16 | 2.96 ± 0.22 |  |  |
| KKNSNMTYEKLSRAMRYYYKREIL [ELF3] | 2.33 ± 0.25 | 2.27 ± 0.47 |  |  |
| YNNDIDYYAKRNALRAAEVWMDDF [GALNT9] | 2.96 ± 0.076 | 2.99 ± 0.32 |  |  |
| HIDSSCSSFIKTEPSSPASLTDSV [ESRRG] | 4.29 ± 0.18 | 4.23 ± 0.2 |  |  |
| IEDFQQKILLTKSENARLVLQIDN [KRT36] | 2.79 ± 0.25 | 2.8 ± 0.23 |  |  |
| ICFCCEEFQPAKCTDKENALKLFP [FAM189A2] | 2.37 ± 0.036 | 2.58 ± 0.25 |  |  |
| KILVGNRLHLAFKRQVPTEQAQAY [RAB40B] | 2.07 ± 0.16 | 2.5 ± 0.23 |  |  |
| SGEKYDPDANTWTALPPMNEARHN [GAN] | 4.61 ± 0.55 | 4.8 ± 0.13 |  |  |

| Sequence | protein stability index [1] | protein stability index [2] | protein stability index [3] | protein stability index [4] |
| --- | --- | --- | --- | --- |
| GKKFLLLSINRYERKKNLTLALEA [ALG2] | 2.35 ± 0.88 | 2.6 ± 0.39 |  |  |
| ERTGFSIRPVAGYLSPRDFLSGLA [TPH1] | 2.25 ± 0.048 | 2.36 ± 0.35 |  |  |
| GQYRANEGTSSIVMEIQKQIEKKE [TAF7L] | 5.06 ± 0.35 | 5.16 ± 0.46 |  |  |
| RAPSRRHGVRAKVQPQARKKEMEM [CPN1] | 4.39 ± 0.26 | 4.64 ± 0.082 |  |  |
| TVVREVIFLGFSSLARLQQLLFVI [OR10K2] | 3.15 ± 0.73 | 2.87 ± 0.55 |  |  |
| EAANLLIPAVGSSLSEALDLIESD [MYBL2] | 4.81 ± 0.14 | 4.72 ± 0.2 |  |  |
| SSWDIDGRATKRRKKSGDLKKAKV [FBXO34] | 4.8 ± 0.29 | 4.79 ± 0.11 |  |  |
| AVVRLNKKIYEAKRFTDAGFEHYD [CDC14A] | 2.54 ± 0.38 | 2.52 ± 0.25 |  |  |
| ASLAAAKKQLADETLLKVDLENRC [LMNB1] | 4.35 ± 0.12 | 4.46 ± 0.24 |  |  |
| IWNILDLVVILLSIVAVGFHIFRT [PKD2L1] | 3.15 ± 0.64 | 2.45 ± 0.84 |  |  |
| CPIIRIPNRFLRGHRPPPARSGHR [KLHDC10] | 2.68 ± 0.69 | 3.32 ± 0.85 |  |  |
| SESPGSLSEVLAQPQGALAPPNCE [DNAAF3] | 5.44 ± 0.1 | 5.17 ± 0.17 |  |  |
| DPACYEFLWGPRALVETSYVKVLH [MAGEA3] | 2.12 ± 0.2 | 2.12 ± 0.36 |  |  |
| TLNQLQSLQNSLECAMETTEEQTR [NECAB1] | 4.94 ± 0.13 | 4.97 ± 0.28 |  |  |
| VDVQTELYLEEIADRIIEVDMECQ [RSPH3] | 2.75 ± 0.32 | 3.12 ± 0.69 |  |  |
| ALRAAEVWMDDFKSHVYMAWNIPM [GALNT9] | 2.35 ± 0.8 | 2.24 ± 0.71 |  |  |
| IGALTYFAQADALKGTLVSTLKEV [ACSBG2] | 2.21 ± 0.41 | 2.25 ± 0.56 |  |  |
| DLFEKKGYTFDYAYDWVGRPIPTP [CSNK1G1] | 2.26 ± 0.58 | 2.37 ± 0.29 |  |  |
| SSPVDLVTATDQKVEKMLISSIKE [IMPA1] | 4.38 ± 0.15 | 4.28 ± 0.1 |  |  |
| LASYLEKVRQLERDNAELEKLIQE [KRT34] | 3.33 ± 0.22 | 3.5 ± 0.24 |  |  |
| HFKKQTIYRFLKLHPRGKNNFSPL [FEM1C] | 2.71 ± 0.32 | 1.96 ± 0.14 |  |  |
| KNGLSFIETSALDSTNVEAAFQTI [RAB11A] | 3.31 ± 0.27 | 3.56 ± 0.43 |  |  |

| Sequence | protein stability index [1] | protein stability index [2] | protein stability index [3] | protein stability index [4] |
| --- | --- | --- | --- | --- |
| HPMYRRLVHSAVDVPTIQEKVNEG [ZMYND11] | 4.11 ± 0.36 | 4.3 ± 0.17 |  |  |
| YCESHAKARVKPPEGYDVVAVYPN [PDLIM4] | 3.74 ± 0.38 | 4.08 ± 0.25 |  |  |
| TLAQTISEAAIGGAMLGQTTSEEA [HDAC6] | 4.66 ± 0.32 | 4.78 ± 0.28 |  |  |
| AQMAKAAAEERALFTDRMATRSTT [WEE1] | 4.8 ± 0.21 | 4.87 ± 0.25 |  |  |
| QALSGTPKKGPAPSLSPGSSCVKY [TSPAN10] | 4.16 ± 0.059 | 4.37 ± 0.22 |  |  |
| AWFFSKTEELNKEVASNTEMIQTS [KRT15] | 3.83 ± 0.18 | 3.84 ± 0.081 |  |  |
| DSLTSLQWLQEFSILNAKAPALPP [FOXJ1] | 2.26 ± 0.043 | 2.19 ± 0.075 |  |  |
| KKQTKVEFPEARIFEETLNILIYE [KCTD13] | 2.16 ± 0.2 | 2.44 ± 0.5 |  |  |
| PTVTIEGFLQALSLAVDKQFEERK [TRIP13] | 2.29 ± 0.61 | 2.13 ± 0.44 |  |  |
| ERDRISTRRSSYEDSSLPSINALL [HNF4A] | 3.79 ± 0.097 | 3.84 ± 0.49 |  |  |
| AATQALPQDSGTAAWKGRVLLPET [C22orf31] | 4.11 ± 0.062 | 4.1 ± 0.24 |  |  |
| AQRPGITHGVGLVLRVEQQPHLPL [SCNN1D] | 2.59 ± 0.17 | 2.85 ± 0.15 |  |  |
| AVPPTSSVPPVAGAPSVGQPGAGF [SNAP91] | 4.53 ± 0.23 | 4.42 ± 0.086 |  |  |
| RPLARPIKPNEILPPEKGREVAKE [RHOBTB2] | 4.91 ± 0.16 | 4.68 ± 0.66 |  |  |
| MPVQLTSRREIRKIMGVEEEDDDD [ANKRD40] | 5.62 ± 0.19 | 5.57 ± 0.13 |  |  |
| AASISDGDCDAREEKQRELARKGS [FAM219A] | 5.54 ± 0.2 | 5.52 ± 0.2 |  |  |
| VKAEPFIKWLKEAEEESSGGEEED [EIF5] | 5.3 ± 0.28 | 5.4 ± 0.15 |  |  |
| LLREEEYVAPPRGPLPTLQVVPL [TRAF3IP2] |  |  | 2.35 ± 0.3 | 2.05 ± 0.33 |
| EQLMYIKEDLIIPHHHSFYDFIVT [FAM50A] | 2.42 ± 0.21 | 2.27 ± 0.21 |  |  |
| TFESPADAKDAARDMNGKSLDGKA [RBMX] | 5.39 ± 0.3 | 5.55 ± 0.12 |  |  |
| RTFGPPPSLSPGAFSYSSSSRFSS [PRPH] | 3.42 ± 0.21 | 3.8 ± 0.3 |  |  |
| SYSIQKVIGFAKMIPGFRDLTSED [VDR] | 2.52 ± 0.29 | 2.88 ± 0.12 |  |  |
